Laboratory results reported in paper PMC6351565.

What was measured:
[1] = target: WT/M2345 IRSp53 heterodimer (human (from the printed UniProt entry)) (UniProt Q9UQB8); assay: co-IP; homo- and heterodimers of wild-type and M2345 IRSp53 (FLAG and STREP tags, single plasmid with IRES) from HEK293T cells; endogenous 14-3-3 detected by blot, relative to WT-IRSp53-FLAG/WT-IRSp53-STREP
[2] = target: M2345/WT IRSp53 heterodimer (human (from the printed UniProt entry)) (UniProt Q9UQB8); assay: as above
M2345/WT IRSp53 heterodimer (human, sequence (Q9UQB8 other isoform, or with tags, fused parts or gaps T340A | T360A | S366A | 452SSST455 -> AAAA, chain 1 of 2): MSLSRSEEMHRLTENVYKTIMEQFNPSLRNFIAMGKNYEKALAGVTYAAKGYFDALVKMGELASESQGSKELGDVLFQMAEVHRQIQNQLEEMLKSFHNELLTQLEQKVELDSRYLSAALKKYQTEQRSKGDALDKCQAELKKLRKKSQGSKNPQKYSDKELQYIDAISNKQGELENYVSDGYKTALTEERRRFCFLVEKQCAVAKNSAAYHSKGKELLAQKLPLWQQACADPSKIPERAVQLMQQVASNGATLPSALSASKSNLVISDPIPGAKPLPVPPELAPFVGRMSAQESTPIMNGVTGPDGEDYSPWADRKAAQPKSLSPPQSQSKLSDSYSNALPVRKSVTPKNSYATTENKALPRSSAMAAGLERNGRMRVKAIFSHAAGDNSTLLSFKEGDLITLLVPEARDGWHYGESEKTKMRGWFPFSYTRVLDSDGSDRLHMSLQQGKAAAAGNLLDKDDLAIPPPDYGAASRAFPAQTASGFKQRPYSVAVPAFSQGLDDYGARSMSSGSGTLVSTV
M2345/WT IRSp53 heterodimer (human, sequence (Q9UQB8 other isoform, or with tags, fused parts or gaps, chain 2 of 2): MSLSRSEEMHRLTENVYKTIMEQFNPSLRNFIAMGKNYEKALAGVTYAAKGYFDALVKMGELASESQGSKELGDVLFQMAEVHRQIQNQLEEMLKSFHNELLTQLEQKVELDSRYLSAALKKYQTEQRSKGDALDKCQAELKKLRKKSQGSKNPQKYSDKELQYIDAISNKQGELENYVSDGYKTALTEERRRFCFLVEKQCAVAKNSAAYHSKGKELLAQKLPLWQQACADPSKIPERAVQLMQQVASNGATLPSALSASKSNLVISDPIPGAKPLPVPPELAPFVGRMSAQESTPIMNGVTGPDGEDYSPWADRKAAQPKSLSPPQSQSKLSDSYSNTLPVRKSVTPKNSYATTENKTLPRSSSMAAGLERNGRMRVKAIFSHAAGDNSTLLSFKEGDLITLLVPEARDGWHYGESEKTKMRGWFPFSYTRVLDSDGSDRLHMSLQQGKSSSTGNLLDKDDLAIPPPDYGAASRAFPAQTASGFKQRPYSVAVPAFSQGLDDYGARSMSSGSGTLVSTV

endogenous 14-3-3 (all isoforms included), sequence (P27348 whole entry, canonical isoform): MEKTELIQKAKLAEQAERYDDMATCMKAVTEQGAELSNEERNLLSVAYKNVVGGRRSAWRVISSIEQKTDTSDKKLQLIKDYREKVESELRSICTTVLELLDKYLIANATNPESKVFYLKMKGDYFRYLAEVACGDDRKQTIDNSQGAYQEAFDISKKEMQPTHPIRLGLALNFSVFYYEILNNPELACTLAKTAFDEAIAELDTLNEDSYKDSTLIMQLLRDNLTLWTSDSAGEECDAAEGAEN

Work on “endogenous 14-3-3 (all isoforms included) (from UniProt P27348 1-245) (natural protein)” yielded a percent of the amount that coimmunoprecipitates with WT/WT IRSp53 [1] of 50% and a percent of the amount that coimmunoprecipitates with WT/WT IRSp53 [2] of 50%.
